Residue numbers refer to the chain shown, from its start. Names and notes keep the numbering of the source.
B1: MBP-16E6(4C4S) F76A (natural protein)
chain: MHQKRTAMFQDPQERPRKLPQLCTELQTTIHDIILECVYCKQQLLRREVYDFAFRDLCIVYRDGNPYAVCDKCLKAYSKISEYRHYSYSLYGTTLEQQYNKPLSDLLIRCINCQKPLSPEEKQRHLDKKQRFHNIRGRWTGRCMSCSRSSRTRRETQL
notes: Mutant of m2; source: E. coli BL21(DE3), purified (MBPTrap, SEC); not shown: MBP, N-terminal, kept
B2: MBP-16E6(4C4S) R62A (natural protein)
chain: B1 chain with R62A, A76F
notes: as for B1
B3: MBP-16E6(4C4S) R84A (natural protein)
chain: B1 chain with A76F, R84A
notes: as for B1
B4: MBP-16E6(4C4S) R84E (natural protein)
chain: B1 chain with A76F, R84E
notes: as for B1
B5: MBP-16E6(4C4S) S89A (natural protein)
chain: B1 chain with A76F, S89A
notes: as for B1
B6: MBP-16E6(4C4S) Y77A (natural protein)
chain: B1 chain with A76F, Y77A
notes: as for B1
B7: MBP-16E6(4C4S) Y86A (natural protein)
chain: B1 chain with A76F, Y86A
notes: as for B1
B8: MBP-16E6(4C4S) Y88A (natural protein)
chain: B1 chain with A76F, Y88A
notes: as for B1
B9: MBP-16E6(4C4S) L57A (natural protein)
chain: B1 chain with L57A, A76F

biological target: T1, full-length human E6AP (C-terminal TEV-6xHis-Avi) (human, UniProt Q05086 1-875, biotin on the Avi tag (BirA biotin-protein ligase) in the SPR experiments); test: SPR; conditions: both partners purified
T1 construct: also called UBE3A; biotin-E6AP
T1 sequence (Q05086 whole entry): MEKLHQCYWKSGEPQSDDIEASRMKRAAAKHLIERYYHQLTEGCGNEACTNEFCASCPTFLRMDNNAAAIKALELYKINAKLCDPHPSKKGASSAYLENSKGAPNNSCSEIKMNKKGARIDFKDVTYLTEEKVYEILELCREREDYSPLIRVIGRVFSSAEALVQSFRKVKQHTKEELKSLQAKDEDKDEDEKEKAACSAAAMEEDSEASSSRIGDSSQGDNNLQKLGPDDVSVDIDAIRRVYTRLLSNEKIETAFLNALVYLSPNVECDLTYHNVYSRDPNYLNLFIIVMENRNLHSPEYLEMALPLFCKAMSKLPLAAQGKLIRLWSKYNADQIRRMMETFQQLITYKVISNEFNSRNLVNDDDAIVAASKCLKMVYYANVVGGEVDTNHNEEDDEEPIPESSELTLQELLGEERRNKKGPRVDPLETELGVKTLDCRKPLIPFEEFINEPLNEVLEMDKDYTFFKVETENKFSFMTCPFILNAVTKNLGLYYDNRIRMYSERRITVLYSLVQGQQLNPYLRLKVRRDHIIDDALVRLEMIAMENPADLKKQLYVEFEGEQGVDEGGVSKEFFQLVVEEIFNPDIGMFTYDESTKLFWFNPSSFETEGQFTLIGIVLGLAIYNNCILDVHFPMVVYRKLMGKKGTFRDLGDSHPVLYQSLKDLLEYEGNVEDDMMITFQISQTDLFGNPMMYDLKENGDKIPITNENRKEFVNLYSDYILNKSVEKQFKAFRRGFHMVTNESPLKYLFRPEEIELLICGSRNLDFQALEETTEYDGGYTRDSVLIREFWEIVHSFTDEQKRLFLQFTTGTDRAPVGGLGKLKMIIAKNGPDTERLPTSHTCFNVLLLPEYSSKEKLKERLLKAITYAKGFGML

Going from B1 to B2, the Kd falls from 8.5 nM to 2.2 nM (3.9-fold). The second binds more tightly here.

First: B3
Second: B4
The Kd of the first is 5.7-fold lower: 34.4 nM for the first, 195 nM for the second.

First: B5
Second: B6
The Kd of the first is 2.3-fold higher: 1.71 nM for the first, 0.742 nM for the second.

B7 and B8 are within 1.5-fold of each other in Kd: 6.3 nM for the first, 5.4 nM for the second.

biological target: T1, full-length human E6AP (C-terminal …); test: cell-based or functional assay; conditions: not given

Compared with B1, B5 is lower in “unmodified E6AP remaining at 30 min, E6AP autoubiquitination” value (shortened to “unmodified E6AP remaining at 30 min”): 82% for the first, 33.1% for the second.

Compared with B6, B7 is higher in “unmodified E6AP remaining at 30 min” value: 21.6% for the first, 56.5% for the second.

For B8, the “unmodified E6AP remaining at 30 min” value was 21.2%.

Going from B1 to B5, the “unmodified p53 remaining at 30 min, in vitro ubiquitination of full-length p53” value (shortened to “unmodified p53 remaining at 30 min”) falls from 59.5% to 57.3%.

First: B6
Second: B7
The “unmodified p53 remaining at 30 min” value of the first is lower: 22.4% for the first, 44.2% for the second.

In the case of B8, the “unmodified p53 remaining at 30 min” value is reported as 19.2%.

First: B9
Second: B2
The “unmodified E6AP remaining after 30 min, E6AP autoubiquitination” value of the first is higher: 45.6% for the first, 9.3% for the second.

B3 and B4 are the same in “unmodified E6AP remaining after 30 min, E6AP autoubiquitination” value: 64.9% for the first, 64.9% for the second.
